Data published in patent US20140213531A1 (POLYPHOR, published 2014).

T1: Chymase, from human skin (human, UniProt P23946 22-247)
T1 construct: purified natural enzyme, bought
T1 sequence (looked up): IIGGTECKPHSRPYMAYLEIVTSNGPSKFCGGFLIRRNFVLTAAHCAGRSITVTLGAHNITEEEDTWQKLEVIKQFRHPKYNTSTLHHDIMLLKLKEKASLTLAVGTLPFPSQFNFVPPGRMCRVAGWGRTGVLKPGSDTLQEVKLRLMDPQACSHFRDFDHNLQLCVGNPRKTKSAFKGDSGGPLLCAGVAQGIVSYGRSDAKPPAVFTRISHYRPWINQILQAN


Key:
Assay in all cases: enzyme inhibition, pNA substrate
[1] = biological target: T2, Chymotrypsin, from human pancreas (human, UniProt P17538 19-263)
T2 construct: purified natural enzyme, bought
T2 sequence (P17538 19-263): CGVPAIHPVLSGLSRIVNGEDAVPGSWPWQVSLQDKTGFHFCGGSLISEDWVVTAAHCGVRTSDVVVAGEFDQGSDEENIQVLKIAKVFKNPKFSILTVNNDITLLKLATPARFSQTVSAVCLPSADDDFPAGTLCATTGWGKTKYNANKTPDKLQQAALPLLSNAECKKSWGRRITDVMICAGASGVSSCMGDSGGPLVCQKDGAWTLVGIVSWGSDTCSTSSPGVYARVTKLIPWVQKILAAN

[2] = biological target: Thrombin, from Human Plasma, high activity (human, UniProt P00734 328-622)
[3] = biological target: T3, Trypsin, Iodination grade, from human pancreas (human, UniProt P07477 24-247)
T3 construct: purified natural enzyme, bought

[4] = biological target: T4, Urokinase from human urine (human, UniProt P00749 21-431, limits assumed)
T4 construct: purified natural enzyme, bought

[5] = biological target: T5, Coagulation Factor Xa, from uman plasma (human, UniProt P00742 41-179; P00742 235-488, limits assumed)
T5 construct: purified natural enzyme, bought; also called FXa
T5 sequence (P00742 41-179 limits assumed, chain 1 of 2): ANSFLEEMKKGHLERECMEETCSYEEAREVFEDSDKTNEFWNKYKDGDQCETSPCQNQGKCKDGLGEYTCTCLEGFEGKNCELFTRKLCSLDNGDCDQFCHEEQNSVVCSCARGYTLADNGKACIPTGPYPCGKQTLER
T5 sequence (P00742 235-488 limits assumed, chain 2 of 2): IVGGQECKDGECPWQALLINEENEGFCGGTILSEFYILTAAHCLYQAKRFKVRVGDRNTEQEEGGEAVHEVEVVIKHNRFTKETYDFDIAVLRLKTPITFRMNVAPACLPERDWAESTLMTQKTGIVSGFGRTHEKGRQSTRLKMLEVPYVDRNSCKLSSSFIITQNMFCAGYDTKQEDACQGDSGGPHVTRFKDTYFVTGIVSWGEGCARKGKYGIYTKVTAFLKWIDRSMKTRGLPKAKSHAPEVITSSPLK

[6] = biological target: T6, Tryptase, from human lung (human, UniProt Q15661 31-275, limits assumed)
T6 construct: purified natural enzyme, bought
T6 sequence (Q15661 31-275 limits assumed): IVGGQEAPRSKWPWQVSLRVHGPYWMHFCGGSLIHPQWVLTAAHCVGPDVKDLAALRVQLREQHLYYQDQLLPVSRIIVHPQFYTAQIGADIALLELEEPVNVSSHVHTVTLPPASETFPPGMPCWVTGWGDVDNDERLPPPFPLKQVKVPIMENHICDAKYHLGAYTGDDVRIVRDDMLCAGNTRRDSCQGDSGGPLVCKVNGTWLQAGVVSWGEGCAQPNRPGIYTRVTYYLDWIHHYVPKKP

[7] = biological target: T1, Chymase, from human skin

Binder	% inhibition at 100 µM [1]	% inhibition at 100 µM [2]	% inhibition at 100 µM [3]	% inhibition at 100 µM [4]	% inhibition at 100 µM [5]	% inhibition at 100 µM [6]	% inhibition at 100 µM [7]
XCTASIPPQCY (HELM PEPTIDE1{[Nle].C.T.A.S.I.P.P.Q.C.Y.[dP].D}$PEPTIDE1,PEPTIDE1,2:R3-10:R3|PEPTIDE1,PEPTIDE1,1:R1-13:R2$$$V2.0; SMILES CCCC[C@@H]1NC(=O)[C@H](CC(=O)O)NC(=O)[C@H]2CCCN2C(=O)[C@H](Cc2ccc(O)cc2)NC(=O)[C@@H]2CSSC[C@H](NC1=O)C(=O)N[C@@H]([C@@H](C)O)C(=O)N[C@@H](C)C(=O)N[C@@H](CO)C(=O)N[C@@H]([C@@H](C)CC)C(=O)N1CCC[C@H]1C(=O)N1CCC[C@H]1C(=O)N[C@@H](CCC(N)=O)C(=O)N2, also called Ex. 168) [Example 168]	72.9%	0%	12.8%				
XCTASIPPQCX (HELM PEPTIDE1{[Nle].C.T.A.S.I.P.P.Q.C.[O=C([C@H](Cc1ccc2ccccc2c1)N[*:1])[*:2]].[dP].P}$PEPTIDE1,PEPTIDE1,2:R3-10:R3|PEPTIDE1,PEPTIDE1,1:R1-13:R2$$$V2.0; SMILES CCCC[C@@H]1NC(=O)[C@@H]2CCCN2C(=O)[C@H]2CCCN2C(=O)[C@H](Cc2ccc3ccccc3c2)NC(=O)[C@@H]2CSSC[C@H](NC1=O)C(=O)N[C@@H]([C@@H](C)O)C(=O)N[C@@H](C)C(=O)N[C@@H](CO)C(=O)N[C@@H]([C@@H](C)CC)C(=O)N1CCC[C@H]1C(=O)N1CCC[C@H]1C(=O)N[C@@H](CCC(N)=O)C(=O)N2, also called Ex. 95) [Example 95]		0%		10.3%	11.3%	0%	0%
XCTASIPPQCX (HELM PEPTIDE1{[Nle].C.T.A.S.I.P.P.Q.C.[O=C([C@H](Cc1ccccc1Cl)N[*:1])[*:2]].[dP].P}$PEPTIDE1,PEPTIDE1,2:R3-10:R3|PEPTIDE1,PEPTIDE1,1:R1-13:R2$$$V2.0; SMILES CCCC[C@@H]1NC(=O)[C@@H]2CCCN2C(=O)[C@H]2CCCN2C(=O)[C@H](Cc2ccccc2Cl)NC(=O)[C@@H]2CSSC[C@H](NC1=O)C(=O)N[C@@H]([C@@H](C)O)C(=O)N[C@@H](C)C(=O)N[C@@H](CO)C(=O)N[C@@H]([C@@H](C)CC)C(=O)N1CCC[C@H]1C(=O)N1CCC[C@H]1C(=O)N[C@@H](CCC(N)=O)C(=O)N2) [Example 144]	80.6%				0%	0%	0%
XCTASIPPQCX (HELM PEPTIDE1{[Nle].C.T.A.S.I.P.P.Q.C.[Cha].[dP].P}$PEPTIDE1,PEPTIDE1,2:R3-10:R3|PEPTIDE1,PEPTIDE1,1:R1-13:R2$$$V2.0; SMILES CCCC[C@@H]1NC(=O)[C@@H]2CCCN2C(=O)[C@H]2CCCN2C(=O)[C@H](CC2CCCCC2)NC(=O)[C@@H]2CSSC[C@H](NC1=O)C(=O)N[C@@H]([C@@H](C)O)C(=O)N[C@@H](C)C(=O)N[C@@H](CO)C(=O)N[C@@H]([C@@H](C)CC)C(=O)N1CCC[C@H]1C(=O)N1CCC[C@H]1C(=O)N[C@@H](CCC(N)=O)C(=O)N2, also called Ex. 97) [Example 97]		11.6%		11.9%		0%	0%
